Data from the Immune Epitope Database (IEDB).
Each block holds one sequence with its values, some of them ahead of it.

Key:
Experiment in all cases: IEDB peptide-MHC binding, cellular MHC/competitive/radioactivity; ≥ and ≤ were set here for values at or beyond the usual limits of such assays
HLA-A*02:02 = target: HLA-A*02:02
HLA-A*02:05 = target: HLA-A*02:05
HLA-A*02:01 = target: HLA-A*02:01
[1] = source organism: Hepatitis B virus subtype adw2
[2] = source organism: Human immunodeficiency virus type 1 BH10
[3] = source organism: Human immunodeficiency virus 1

Sequence: WLSLLVPFV
IC50 (HLA-A*02:02; [1]): 0.034 µM
IC50 (HLA-A*02:05; [1]): 0.004 µM

Sequence: YLHTLWKAGI
IC50 (HLA-A*02:02; [1]): 0.053 µM
IC50 (HLA-A*02:05; [1]): 0.057 µM

Sequence: STLPETTVVRR
IC50 (HLA-A*02:01; [1]): 1.31 µM
IC50 (HLA-A*02:02; [1]): 10 µM
IC50 (HLA-A*02:05; [1]): 10 µM

Sequence: ILKEPVHGV
IC50 (HLA-A*02:02; [2]): 0.15 µM
IC50 (HLA-A*02:05; [2]): 0.0094 µM

Sequence: DPKVKQWPL
IC50 (HLA-A*02:02; [3]): 10 µM
IC50 (HLA-A*02:05; [3]): 10 µM

IC50 (HLA-A*02:02; source organism: Homo sapiens): 0.087 µM
IC50 (HLA-A*02:05; source organism: Homo sapiens): 0.019 µM
Sequence: LLGRNSFEV

Sequence: IVGAETFYV
IC50 (HLA-A*02:01; source organism: HIV-1 M:B_MN): 0.0035 µM
IC50 (HLA-A*02:02; source organism: HIV-1 M:B_MN): 0.062 µM
IC50 (HLA-A*02:05; source organism: HIV-1 M:B_MN): 0.0065 µM

IC50 (HLA-A*02:01; source organism: Homo sapiens): 10 µM
IC50 (HLA-A*02:02; source organism: Homo sapiens): 10 µM
IC50 (HLA-A*02:05; source organism: Homo sapiens): 10 µM
Sequence: EADPTGHSY

Sequence: LLPIFFCLWV
IC50 (HLA-A*02:05; [1]): 10 µM
